For orientation: Kd means the concentration at which binding is half-saturated.

The target of data set [1] is T1, Sso7c4 wild-type (Sulfolobus solfataricus P2, UniProt A0A0E3K9N8 1-54). Kind of data set: fluorescence polarization; 20 mM Tris-Cl pH 7.5, no added salt, 25 C; FP with 100 nM FAM-DNA, 1 h at room temperature. The settings on record: protein: recombinant; chain copies: 2; label: 5'-FAM; blunt, self-complementary. (In fluorescence polarisation assays a small probe gives low polarisation when free and higher when bound to something large.)
Target sequence in this assay (A0A0E3K9N8 entry or part of it): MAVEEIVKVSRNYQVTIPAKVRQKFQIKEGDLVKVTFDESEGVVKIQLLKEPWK

Data set [2] addresses T2, C-terminally truncated Sso7c4 (Sulfolobus solfataricus P2, UniProt A0A0E3K9N8 1-48, del49-54).
T2 chain: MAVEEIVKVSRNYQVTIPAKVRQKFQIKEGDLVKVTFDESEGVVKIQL
Described as above. Particulars: protein: recombinant; chain copies: 2; label: 5'-FAM; blunt, self-complementary.

The target in data set [3] is T1, Sso7c4 wild-type. Nature of the data set: bulk FRET; saturating protein; DNA bent; 20 mM Tris-Cl pH 7.5, no added salt, 25 C; FP with 100 nM FAM-DNA, 1 h at room temperature. Particulars: protein: recombinant; chain copies: 2; label: Cy3 and Cy5 on the 5' ends; blunt.
Data set [4] addresses T2, C-terminally truncated Sso7c4. Kind of data set: bulk FRET; saturating protein; DNA straightened; 20 mM Tris-Cl pH 7.5, no added salt, 25 C; FP with 100 nM FAM-DNA, 1 h at room temperature. Particulars: protein: recombinant; chain copies: 2; label: Cy3 and Cy5 on the 5' ends; blunt.
Data set [5] deals with T1, Sso7c4 wild-type. Nature of the data set: tryptophan fluorescence quenching; 20 mM Tris-Cl pH 7.5, no added salt, 25 C; FP with 100 nM FAM-DNA, 1 h at room temperature. The settings on record: protein: recombinant; chain copies: 2; blunt, self-complementary.
Target sequence in this assay (A0A0E3K9N8 entry or part of it): as the sequence (A0A0E3K9N8 entry or part of it) above
In data set [6] the target is T2, C-terminally truncated Sso7c4. Nature of the data set: bulk FRET; saturating protein; slight change; 20 mM Tris-Cl pH 7.5, no added salt, 25 C; FP with 100 nM FAM-DNA, 1 h at room temperature. Particulars: protein: recombinant; chain copies: 2; label: Cy3 and Cy5 on the 5' ends; blunt.
Data set [7] addresses Sso7c4-R11A (Sulfolobus solfataricus P2, UniProt A0A0E3K9N8 1-54, R11A). Kind of data set: fluorescence polarization; 20 mM Tris-Cl pH 7.5, no added salt, 25 C; FP with 100 nM FAM-DNA, 1 h at room temperature. Particulars: protein: recombinant; chain copies: 2; label: 5'-FAM; blunt, self-complementary.
Data set [8] addresses Sso7c4-R22A (Sulfolobus solfataricus P2, UniProt A0A0E3K9N8 1-54, R22A). Described as above. Particulars: protein: recombinant; chain copies: 2; label: 5'-FAM; blunt, self-complementary.

Chain of Sso7c4-R11A (A0A0E3K9N8 entry or part of it R11A | R11A R11A): as the sequence (A0A0E3K9N8 entry or part of it) above, with R11A counted along it
Chain of Sso7c4-R22A (A0A0E3K9N8 entry or part of it R22A | R22A R22A): as the sequence (A0A0E3K9N8 entry or part of it) above, with R22A counted along it

B1: 5'-FAM-8-bp DNA (dsDNA)
DNA 1: CGCTAGCG
DNA 2: CGCTAGCG
Consider B1, for which the values for the Kd in data set [1] and in data set [2] were 14.2 ± 0.26 µM and 15.9 ± 0.53 µM, respectively.

B2: 30 bp FRET DNA (dsDNA)
DNA 1: CGTGCTCTGCGATCTCTTCGATAACCATAG
DNA 2: CTATGGTTATCGAAGAGATCGCAGAGCACG
In the case of B2, the binding result in data set [3] and in data set [4] was “binds” each time.

B3: 5'-FAM-10-bp DNA (dsDNA)
DNA 1: CCTACGTAGG
DNA 2: CCTACGTAGG
B3: the Kd in data set [1] came out at 3.12 ± 0.16 µM; in data set [2], 11 ± 0.41 µM.

B4: 20-bp DNA unlabeled (dsDNA)
DNA 1: CCAACACTGGCCAGTGTTGG
DNA 2: CCAACACTGGCCAGTGTTGG
B4: the Kd in data set [5] is 22.8 µM.

B5: 24 bp FRET DNA (dsDNA)
DNA 1: CGTGCTCTGCGATCTCTTCGATAA
DNA 2: TTATCGAAGAGATCGCAGAGCACG
For the molecule B5, the binding result in data set [3] and in data set [6] was “binds” throughout.

B6: 5'-FAM-20-bp DNA (dsDNA)
DNA 1: CCAACACTGGCCAGTGTTGG
DNA 2: CCAACACTGGCCAGTGTTGG
B6: the Kd in data set [1] was determined as 2.73 ± 0.18 µM; in data set [2] it was 12 ± 0.53 µM; in data set [7], 3.19 ± 0.12 µM; in data set [8], 5.07 ± 0.15 µM.

For the origin of these results see article PMC5222340, “The Arginine Pairs and C-Termini of the Sso7c4 from Sulfolobus solfataricus Participate in Binding and Bending DNA”.
